Test results as given in patent publication US8394929B2, “Nogo receptor-mediated blockade of axonal growth” (Yale University, priority 2000, dated 2013).

What was measured:
[1] = biological target: T1, NgR carboxy terminal deletion mutant (NgRΔCT) (Mus musculus, UniProt Q99PI8); test: Growth cone collapse in E7 retinal ganglion cells infected with NgRΔCT; assay type: cell-based
T1 construct: expressed in transfected cells; host or cells: chick E7 retinal ganglion cell explants infected with recombinant HSV
T1 sequence (Q99PI8 with tags, fused parts or gaps): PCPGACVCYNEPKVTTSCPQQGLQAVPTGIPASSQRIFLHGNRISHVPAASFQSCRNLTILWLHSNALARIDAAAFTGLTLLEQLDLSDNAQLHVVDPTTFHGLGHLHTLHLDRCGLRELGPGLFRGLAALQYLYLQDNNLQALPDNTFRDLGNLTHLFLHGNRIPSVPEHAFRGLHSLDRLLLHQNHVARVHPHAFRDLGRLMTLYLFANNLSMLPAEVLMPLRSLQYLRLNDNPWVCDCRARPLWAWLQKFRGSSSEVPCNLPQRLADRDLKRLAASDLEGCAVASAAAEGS
Experimental: (§1) Because the mouse NgRCT domain was determined to be dispensable for hNogo-A (1055-1120) binding, the ability of NgRΔCT to mediate Nogo-dependent inhibition was examined. HSVNgR constructs transfected into HEK293T cells mediated the expression of mNgR proteins of the predicted molecular weight, as determined by SDS-PAGE and anti-Myc and anti-NgR immunoblotting (FIG. 19A). Day E7 chick retinal ganglion cells (RGCs) were grown for 12 hr, then further incubated for 24 hr with HSVNgR preparations. Explants were fixed with 4% paraformaldehyde with 0.1 M PO4 and 20% sucrose and stained with phalloidin or with anti-myc antibodies. HSVNgR protein expression was detected in axons of infected (RGC) cultures (FIG. 19B).
Growth cone collapse in response to GST-hNogo-A (1055-1120) was investigated in infected RGC cultures. Retinal explants infected with recombinant viral preparations of PlexinA1 (PlexA1), wild-type NgR (wtNgR), NgRL1 chimeric receptor in which the GPI domain has been replaced by the transmembrane region and cytoplasmic tail from the mouse adhesion protein L1 (NgRL1), or NgR carboxy terminal deletion mutant (NgRΔCT) for 12 hr. Following infection, the cells were treated for 30 min with 0, 50, 250, or 500 nM GST-hNogo-A (1055-1120) (GrandPre et al., Nature 403: 439-444, 2000), fixed with 4% paraformaldehyde with 0.1 M PO4 and 20% sucrose, and stained with phalloidin. […]

[2] = biological target: T2, wild-type NgR (wtNgR) (Mus musculus, UniProt Q99PI8); test: Growth cone collapse in E7 retinal ganglion cells infected with HSV wild-type NgR; assay type: cell-based
T2 construct: expressed in transfected cells; host or cells: chick E7 retinal ganglion cell explants infected with recombinant HSV
T2 sequence (Q99PI8 27-447): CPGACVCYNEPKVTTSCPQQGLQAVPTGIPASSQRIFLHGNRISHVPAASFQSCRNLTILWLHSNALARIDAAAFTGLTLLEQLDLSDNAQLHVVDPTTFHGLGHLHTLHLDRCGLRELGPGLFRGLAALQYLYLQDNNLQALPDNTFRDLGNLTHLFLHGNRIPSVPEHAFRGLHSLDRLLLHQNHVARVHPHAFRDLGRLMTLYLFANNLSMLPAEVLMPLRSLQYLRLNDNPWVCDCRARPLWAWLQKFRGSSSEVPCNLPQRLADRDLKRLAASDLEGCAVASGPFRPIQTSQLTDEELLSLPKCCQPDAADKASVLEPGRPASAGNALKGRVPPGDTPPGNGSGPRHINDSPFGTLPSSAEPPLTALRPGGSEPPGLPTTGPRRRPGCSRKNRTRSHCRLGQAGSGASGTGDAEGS
Experimental: Both dorsal root ganglion and retinal neurons from E7 chick embryos were examined. The Nogo responses in the dorsal root ganglion neurons from this developmental stage are weak but slight responses can be detected in some cultures (data not shown).
as §1
Growth cone collapse in response to GST-hNogo-A (1055-1120) was investigated in infected RGC cultures. Retinal explants infected with recombinant viral preparations of PlexinA1 (PlexA1), wild-type NgR (wtNgR), NgRL1 chimeric receptor in which the GPI domain has been replaced by the transmembrane region and cytoplasmic tail from the mouse adhesion protein L1 (NgRL1), or NgR carboxy terminal deletion mutant (NgRΔCT) for 12 hr. […]

[3] = tested on: mNgR deletion mutants; test: AP-hNogo-A (1055-1120) binding to COS-7 cells transfected with other mNgR deletion mutants; set-up: species or system mouse
Source text: The NgΔRNT construct encodes residues 58 to 473 of mNgR. The NgRANT construct was made by using the primers ΔLRR-NT5 (5′-[…]-3′) and NgR3X (5′-[…]-3′) to amplify a sequence from the wtNgR-pSecTag2Hygro plasmid. The amplified sequence was ligated into the XhoI/BamHI of pSecTag2.
The NgLRR-construct encodes residues 306 to 473 of mNgR. The NgLRR construct was made by using the primers, MycNgR305 (5′-[…]-3′) and NgR3X (above) to amplify a sequence from the from the wtNgR-pSecTag2Hygro plasmid. The amplified sequence was ligated into the XhoI/BamHI of pSecTag2.
The mNgR LLR deletions and NgRΔLRRCT deletion mutants were generated using ExSite™ PCR-based site-directed mutagenesis kit (Stratagene, La Jolla, Calif.). Generally, the primers described below were used to amplify a sequence from the wtNgR pSecTag2 plasmid. The ends of the amplified products were ligated together. The resulting constructs were transfected into COS-7 cells.
The NgRΔ1-2 construct encodes residues 1 to 56 and residues 106 to 473 of mNgR. The primers used for making the NgRΔ1-2 construct were DEL LRR (5′PO4) (5′-[…]-3′) and DEL LRR2 (5′-[…]-3′). […]
To determine whether mNgR or mNgR deletion mutants bound to hNogo-A (1055-1120), wtNgR or mNgR deletion mutants were transfected into COS-7 cells. […] AP-fusion protein was detected as previously described for AP-Sema3A (Takahashi et al., Nature Neurosci. 1:487-493, 1998).

B1: GST-Nogo: GST fusion protein of the 66 amino acid lumenal-extracellular fragment of Nogo-A, expressed in E. coli (protein)
chain: RIYKGVIQAIQKSDEGHPFRAYLESEVAISEELVQKYSNSALGHVNCTIKELRRLFLVDDLVDSLK
modifications: also: GST fusion protein
notes: GST fusion protein of the 66 amino acid lumenal-extracellular fragment of Nogo-A, expressed in E. coli
growth cone collapse response (in words) [1]: insensitive | growth cone collapse response (in words) ([2]; listed as GST-hNogo-A (1055-1120)): underwent growth cone collapse | growth cone collapse response (in words) ([2]; listed as Nogo-66): sensitive to Nogo-66-induced collapse

B2: AP-Nogo: fusion protein of His6 tag, placental alkaline phosphatase (AP) and the 66 amino acid active domain of Nogo (protein)
chain: HHHHHHIIPVEEENPDFWNREAAEALGAAKKLQPAQTAAKNLIIFLGDGMGVSTVTAARILKGQKKDKLGPEIPLAMDRFPYVALSKTYNVDKHVPDSGATATAYLCGVKGNFQTIGLSAAARFNQCNTTRGNEVISVMNRAKKAGKSVGVVTTTRVQHASPAGTYAHTVNRNWYSDADVPASARQEGCQDIATQLISNMDIDVILGGGRKYMFRMGTPDPEYPDDYSQGGTRLDGKNLVQEWLAKRQGARYVWNRTELMQASLDPSVTHLMGLFEPGDMKYEIHRDSTLDPSLMEMTEAALRLLSRNPRGFFLFVEGGRIDHGHHESRAYRALTETIMFDDAIERAGQLTSEEDTLSLVTADHSHVFSFGGYPLRGSSIFGLAPGKARDRKAYTVLLYGNGPGYVLKDGARPDVTESESGSPEYRQQSAVPLDEETHAGEDVAVFARGPQAHLVHGVQEQTFIAHVMAFAACLEPYTACDLAPPAGTTDAAHPGRIYKGVIQAIQKSDEGHPFRAYLESEVAISEELVQKYSNSALGHVNCTIKELRRLFLVDDLVDSLK
binding (in words) [3]: did not
